Experimental data from patent publication US20260234592.
“Also recorded” adds a separate entry of the source.

Columns and labels:
[1] = biological target: CBD-TEVrs-bglA (N-terminal His-tagged chitin binding domain, TEVrs ENLYFQG, 6-phospho-β-glucosidase A)
[2] = biological target: MBP5-TEV-paramyosin ΔSal (maltose binding protein domain and a paramyosin fragment linked by a TEV protease recognition sequence)

Protein	CBD-TEVrs-bglA cleavage over time at 30° C. and 20° C. [1]	Slope of ln(1-(cleavage ratio)) against the concentration of TEV protease, 4° C., 18 hours [1]	substrate cleaved, 0° C., 18 hours [1]	substrate cleaved, 4° C., 18 hours [1]	CBD-TEVrs-bglA cleavage over time at 30° C. [1]	protease concentration that reaches almost 100% cleavage, 4° C., 18 hours [1]	also measured
R49V variant TEV protease (N-terminal His tag; R49V, L56V, S135G, S219V) (protein) GHHHHHHHGESLFKGPRDYNPISSTICHLTNESDGHTTSLYGIGFGPFIITNKHLFVRNNGTLVVQSLHGVFKVKNTTTLQQHLIDGRDMIIIRMPKDFPPFPQKLKFREPQREERICLVTTNFQTKSMSSMVSDTSCTFPSGDGIFWKHWIQTKDGQCGSPLVSTRDGFIVGIHSASNFTNTNNYFTSVPKNFMELLTNQEAQQWVSGWRLNADSVLWGGHKVFMVKPEEPFQPVKEATQLMNE	showed slightly weaker activity than control TEV protease	y = -11.281x - 0.2037					Ratio kR49V/kcontrol = (kcat/KM)R49V/(kcat/KM)control [1]: 2
L76P variant TEV protease (N-terminal His tag; L56V, L76P, S135G, S219V) (protein) GHHHHHHHGESLFKGPRDYNPISSTICHLTNESDGHTTSLYGIGFGPFIITNKHLFRRNNGTLVVQSLHGVFKVKNTTTLQQHPIDGRDMIIIRMPKDFPPFPQKLKFREPQREERICLVTTNFQTKSMSSMVSDTSCTFPSGDGIFWKHWIQTKDGQCGSPLVSTRDGFIVGIHSASNFTNTNNYFTSVPKNFMELLTNQEAQQWVSGWRLNADSVLWGGHKVFMVKPEEPFQPVKEATQLMNE	At both temperatures, the L76P variant showed higher activity than control TEV protease	y = -13.611x - 0.0596	the L76P variant cleaved 75% of the substrate	the L76P variant cleaved 87% of the substrate			Ratio kL76P/kcontrol = (kcat/KM)L76P/(kcat/KM)control [1]: 1.7
R49V_L76P variant TEV protease (N-terminal His tag; R49V, L56V, L76P, S135G, S219V) (protein) GHHHHHHHGESLFKGPRDYNPISSTICHLTNESDGHTTSLYGIGFGPFIITNKHLFVRNNGTLVVQSLHGVFKVKNTTTLQQHPIDGRDMIIIRMPKDFPPFPQKLKFREPQREERICLVTTNFQTKSMSSMVSDTSCTFPSGDGIFWKHWIQTKDGQCGSPLVSTRDGFIVGIHSASNFTNTNNYFTSVPKNFMELLTNQEAQQWVSGWRLNADSVLWGGHKVFMVKPEEPFQPVKEATQLMNE	the R49V_L76P variant showed higher activity than L76P variant	y = -11.117x - 0.0916		R49V_L76P variant cleaved the substrate by 94%	all variants performed better that the control	the R49V_L76P variant reached almost 100% cleavage at 0.5 µM	Ratio kR49V-L76P/kcontrol = (kcat/KM)R49V-L76P/(kcat/KM)control [1]: 1.5
control TEV protease (TEV protease triple variant L56V, S135G, S219V with N-terminal His tag) (protein) GHHHHHHHGESLFKGPRDYNPISSTICHLTNESDGHTTSLYGIGFGPFIITNKHLFRRNNGTLVVQSLHGVFKVKNTTTLQQHLIDGRDMIIIRMPKDFPPFPQKLKFREPQREERICLVTTNFQTKSMSSMVSDTSCTFPSGDGIFWKHWIQTKDGQCGSPLVSTRDGFIVGIHSASNFTNTNNYFTSVPKNFMELLTNQEAQQWVSGWRLNADSVLWGGHKVFMVKPEEPFQPVKEATQLMNE			the control TEV protease cleaved 64% of the substrate	Control TEV protease cleaved the substrate by 73%; also recorded: the control TEV protease cleaved 77% of the substrate		2 µM of the control TEV protease was needed to reach the same mark	
R49A_L76P variant TEV protease (triple variant further comprising R49A and L76P), expressed in vivo (protein) GESLFKGPRDYNPISSTICHLTNESDGHTTSLYGIGFGPFIITNKHLFARNNGTLVVQSLHGVFKVKNTTTLQQHPIDGRDMIIIRMPKDFPPFPQKLKFREPQREERICLVTTNFQTKSMSSMVSDTSCTFPSGDGIFWKHWIQTKDGQCGSPLVSTRDGFIVGIHSASNFTNTNNYFTSVPKNFMELLTNQEAQQWVSGWRLNADSVLWGGHKVFMVKPEEPFQPVKEATQLMNE					all variants performed better that the control		
R49G_L76P variant TEV protease (triple variant further comprising R49G and L76P), expressed in vivo (protein) GESLFKGPRDYNPISSTICHLTNESDGHTTSLYGIGFGPFIITNKHLFGRNNGTLVVQSLHGVFKVKNTTTLQQHPIDGRDMIIIRMPKDFPPFPQKLKFREPQREERICLVTTNFQTKSMSSMVSDTSCTFPSGDGIFWKHWIQTKDGQCGSPLVSTRDGFIVGIHSASNFTNTNNYFTSVPKNFMELLTNQEAQQWVSGWRLNADSVLWGGHKVFMVKPEEPFQPVKEATQLMNE					all variants performed better that the control		
R49I_L76P variant TEV protease (triple variant further comprising R49I and L76P), expressed in vivo (protein) GESLFKGPRDYNPISSTICHLTNESDGHTTSLYGIGFGPFIITNKHLFIRNNGTLVVQSLHGVFKVKNTTTLQQHPIDGRDMIIIRMPKDFPPFPQKLKFREPQREERICLVTTNFQTKSMSSMVSDTSCTFPSGDGIFWKHWIQTKDGQCGSPLVSTRDGFIVGIHSASNFTNTNNYFTSVPKNFMELLTNQEAQQWVSGWRLNADSVLWGGHKVFMVKPEEPFQPVKEATQLMNE					all variants performed better that the control		
R49L_L76P variant TEV protease (triple variant further comprising R49L and L76P), expressed in vivo (protein) GESLFKGPRDYNPISSTICHLTNESDGHTTSLYGIGFGPFIITNKHLFLRNNGTLVVQSLHGVFKVKNTTTLQQHPIDGRDMIIIRMPKDFPPFPQKLKFREPQREERICLVTTNFQTKSMSSMVSDTSCTFPSGDGIFWKHWIQTKDGQCGSPLVSTRDGFIVGIHSASNFTNTNNYFTSVPKNFMELLTNQEAQQWVSGWRLNADSVLWGGHKVFMVKPEEPFQPVKEATQLMNE					all variants performed better that the control		
R49F_L76P variant TEV protease (N-terminal His tag; R49F, L56V, L76P, S135G, S219V) (protein) GHHHHHHHGESLFKGPRDYNPISSTICHLTNESDGHTTSLYGIGFGPFIITNKHLFFRNNGTLVVQSLHGVFKVKNTTTLQQHPIDGRDMIIIRMPKDFPPFPQKLKFREPQREERICLVTTNFQTKSMSSMVSDTSCTFPSGDGIFWKHWIQTKDGQCGSPLVSTRDGFIVGIHSASNFTNTNNYFTSVPKNFMELLTNQEAQQWVSGWRLNADSVLWGGHKVFMVKPEEPFQPVKEATQLMNE		y = -13.518x - 0.0413	the R49F_L76P variant cleaved 86% of the substrate	the R49F_L76P variant cleaved 97% of the substrate	all variants performed better that the control with the R49F_L76P variant (SEQ ID NO: 11) displaying the highest activity	the R49F_L76P variant reached almost 100% cleavage at 0.5 µM	cleavage of the substrate, 4° C., 1 hour [2]: The variant protease achieved 85% cleavage in just 1 hour at 4 °C; cleavage of the substrate, 4° C., 3 hours [2]: The variant TEV protease cleaved 98% of the substrate in 3 hours; cleavage of the substrate, 4° C., 5 hours [2]: 99% in 5 hours; Ratio kR49F-L76P/kcontrol = (kcat/KM)R49F-L76P/(kcat/KM)control [1]: 2.6
